Assay results from patent US20250002938A1 (FRANCIS CRICK INSTITUTE, published 2025).

B3: sfGFP-PKD2 fusion protein (wild type PKD2) (other)
chain: IAIVSPQFQEISLPTTSTVIDGSQSTDDDKIVQYHWEELKGPLREEKISEDTAILKLSKLVPGNYTFSLTVVDSDGATNSTTANLTVNKA
notes: also called sfGFP-PKD2 adaptor protein; PKD2WT; not shown: superfolder GFP (sfGFP)
B7: AAV1 wildtype capsid (virus particle) (other)
chain: MAADGYLPDWLEDNLSEGIREWWDLKPGAPKPKANQQKQDDGRGLVLPGYKYLGPFNGLDKGEPVNAADAAALEHDKAYDQQLKAGDNPYLRYNHADAEFQERLQEDTSFGGNLGRAVFQAKKRVLEPLGLVEEGAKTAPGKKRPVEQSPQEPDSSSGIGKTGQQPAKKRLNFGQTGDSESVPDPQPLGEPPATPAAVGPTTMASGGGAPMADNNEGADGVGNASGNWHCDSTWLGDRVITTSTRTWALPTYNNHLYKQISSASTGASNDNHYFGYSTPWGYFDFNRFHCHFSPRDWQRLINNNWGFRPKRLNFKLFNIQVKEVTTNDGVTTIANNLTSTVQVFSDSEYQLPYVLGSAHQGCLPPFPADVFMIPQYGYLTLNNGSQAVGRSSFYCLEYFPSQMLRTGNNFTFSYTFEEVPFHSSYAHSQSLDRLMNPLIDQYLYYLNRTQNQSGSAQNKDLLFSRGSPAGMSVQPKNWLPGPCYRQQRVSKTKTDNNNSNFTWTGASKYNLNGRESIINPGTAMASHKDDEDKFFPMSGVMIFGKESAGASNTALDNVMITDEEEIKATNPVATERFGTVAVNFQSSSTDPATGDVHAMGALPGMVWQDRDVYLQGPIWAKIPHTDGHFHPSPLMGGFGLKNPPPQILIKNTPVPANPPAEFSATKFASFITQYSTGQVSVEIEWELQKENSKRWNPEVQYTSNYAKSANVDFTVDNNGLYTEPRPIGTRYLTRPL
notes: Assembled virus particle: 60 monomers of VP1, VP2 and VP3 at about 1:1:10; VP2 and VP3 are N-terminally shorter forms of the same entry; also called AAV1WT; AAV1 capsid

Experiments:
[1] = target: T1, AAV5(Gln697Cys) virus particle (AAV5); test: anti-VP1/2/3 immunoblot of a non-reducing gel, coupling at 10 µM adaptor
T1 construct: Assembled particle of VP1, VP2 and VP3; also called AAV5^Q697C

[2] = target: T2, AAV1(Asp590Cys) virus particle (AAV1); test: non-reducing Coomassie SDS-PAGE, covalent coupling of the PKD2(Ser425Cys) fusion with AAV1 D590C
T2 construct: Assembled particle of VP1, VP2 and VP3, all carrying the mutation; also called AAV1Cys; AAV1 Asp590Cys virions
T2 chain: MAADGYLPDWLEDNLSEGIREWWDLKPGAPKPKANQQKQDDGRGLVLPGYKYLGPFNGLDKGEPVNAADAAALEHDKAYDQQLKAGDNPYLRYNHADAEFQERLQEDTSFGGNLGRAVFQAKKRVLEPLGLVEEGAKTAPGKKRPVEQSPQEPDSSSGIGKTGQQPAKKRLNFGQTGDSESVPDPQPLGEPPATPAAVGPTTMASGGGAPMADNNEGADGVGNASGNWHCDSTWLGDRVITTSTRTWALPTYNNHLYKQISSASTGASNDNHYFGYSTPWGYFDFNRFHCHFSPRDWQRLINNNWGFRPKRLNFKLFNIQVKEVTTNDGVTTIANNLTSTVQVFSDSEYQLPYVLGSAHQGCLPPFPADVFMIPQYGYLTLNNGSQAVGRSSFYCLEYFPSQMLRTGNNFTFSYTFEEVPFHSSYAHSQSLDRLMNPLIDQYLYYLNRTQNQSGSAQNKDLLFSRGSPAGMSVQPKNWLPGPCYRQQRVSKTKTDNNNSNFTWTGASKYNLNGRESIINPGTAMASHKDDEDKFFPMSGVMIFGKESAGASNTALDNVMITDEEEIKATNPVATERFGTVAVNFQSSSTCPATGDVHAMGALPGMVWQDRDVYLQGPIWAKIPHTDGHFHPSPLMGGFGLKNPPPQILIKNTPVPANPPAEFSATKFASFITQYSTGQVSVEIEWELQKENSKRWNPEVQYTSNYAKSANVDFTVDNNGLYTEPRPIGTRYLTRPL

[3] = target: T3, AAV2 wildtype virus particle (AAV2, UniProt P03135 1-735); test: SPR; AAV2 virus amine-coupled on a CM3 chip, increasing concentrations of the fusion protein
T3 construct: Assembled particle of VP1, VP2 and VP3; The virus for SPR was commercially sourced; also called AAV2 wt

[4] = target: T2, AAV1(Asp590Cys) virus particle; test: SDS-PAGE of the mixtures, non-reducing (top, bottom left) and reducing with βME (bottom right); shows disulfide-linked adducts only
[5] = target: B7; test: response-concentration plot on AAV1 capsid; method not named; PKD2(V480E) mutant
[6] = target: T4, AAV2(Gln589Cys) virus particle (AAV2, UniProt P03135 1-735); test: anti-VP1/2/3 immunoblot of a non-reducing gel, coupling at 5 µM adaptor
T4 construct: Assembled particle of VP1, VP2 and VP3

[7] = target: T2, AAV1(Asp590Cys) virus particle; test: anti-VP1/2/3 immunoblot of a non-reducing gel, coupling at 3 µM adaptor in 1 mM TCEP
[8] = target: T5, PKD2 domain of AAVR, wild type (Pongo abelii (Sumatran orangutan) …, UniProt Q5RFR6 409-498); test: response-concentration plot on AAV1 capsid; method not named; PKD2 wild type
T5 construct: also called PKD2 wild type
T5 sequence: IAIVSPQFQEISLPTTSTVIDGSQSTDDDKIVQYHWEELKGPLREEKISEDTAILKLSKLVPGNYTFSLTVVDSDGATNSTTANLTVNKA

[9] = target: B3; test: SPR; AAV1 virus amine-coupled on a CM3 chip, increasing concentrations of the fusion protein

B1: superfolder GFP fused to PKD1(Ser356Cys) (other)
chain: SAGESVQITLPKNEVQLNAYVLQEPPKGETYTYDWQLITHPRDYCGEMEGKHSQILKLSKLTPGLYEFKVIVEGQNAHGEGYVNVTVKPE
notes: also called PKD1^S356C-derived AP; adaptor protein (38.2 kDa); not shown: superfolder GFP
[1]
  binding result: binds

B2: msfGFP fused to PKD2(Ser425Cys) (other)
chain: IAIVSPQFQEISLPTTCTVIDGSQSTDDDKIVQYHWEELKGPLREEKISEDTAILKLSKLVPGNYTFSLTVVDSDGATNSTTANLTVNKA
notes: also called monomeric variant of super folder GFP adaptor protein; not shown: monomeric variant of super folder GFP (msfGFP)
[2]
  binding result: binds

## B3
[3]
  Kd: ~6 µM

B4: sfGFP-PKD2(Ser425Cys) adaptor fusion protein (other)
chain: IAIVSPQFQEISLPTTCTVIDGSQSTDDDKIVQYHWEELKGPLREEKISEDTAILKLSKLVPGNYTFSLTVVDSDGATNSTTANLTVNKA
notes: On the virus it forms the AAV1(Asp590Cys)<>sfGFP CAR-V; also called PKD2Cys; sfGFP-PKD2(Ser425Cys) fusion polypeptide; not shown: superfolder GFP (sfGFP)
[4]
  binding result: binds

B5: PKD2(V480E) mutant (receptor)
chain: IAIVSPQFQEISLPTTSTVIDGSQSTDDDKIVQYHWEELKGPLREEKISEDTAILKLSKLVPGNYTFSLTVEDSDGATNSTTANLTVNKA
notes: also called PKD2(V480E) variant of AAVR; Val480Glu mutation
[5]
  Kd: 6.13 µM

B6: superfolder GFP fused to PKD2(Ser425Cys-Val480Glu) (other)
chain: IAIVSPQFQEISLPTTCTVIDGSQSTDDDKIVQYHWEELKGPLREEKISEDTAILKLSKLVPGNYTFSLTVEDSDGATNSTTANLTVNKA
notes: also called sfGFP-PKD2(Ser425Cys-Val480Glu); not shown: superfolder GFP
[6]
  binding result: binds
[7]
  binding result: binds

## B7
[8]
  Kd: 12.2 µM
[9]
  Kd: ~2 µM
